# Experimental data as given in patent US20150099282A1, “NADP-DEPENDENT ALANINE DEHYDROGENASE” (EVONIK INDUSTRIES AG, priority 2012, published 2015).
# Tests used:
# Assay type in all cases: biochemical, Bacillus subtilis
# [1] = substrate: NC(=O)C1=CN([C@@H]2O[C@H](COP(=O)(O)OP(=O)(O)OC[C@H]3O[C@@H](n4cnc5c(N)ncnc54)[C@H](O)[C@@H]3O)[C@@H](O)[C@H]2O)C=CC1; test: KM and kcat for NADH/NADPH, reductive amination of pyruvate, BasAlaDH mutant D196A/L197R; conditions: other: reductive amination of pyruvate, 5 mM pyruvate, 200 mM ammonium acetate, 10-500 μM NADH, 0.5 μM enzyme, Hepes/NaOH pH 8.3, 30.0 °C
# Source text: (§1) The conserved aspartate residue was the starting point for constructing the BasAlaDH enzyme variants D196A/L197R, with the SheAlaDH structure being used as template. […] As a result of the substitution L197R, the new cosubstrate specificity is favoured further as the result of the formation of salt bridges between the introduced arginine residue and the NADPH phosphate group.
# (§2) The gene of the Bacillus subtilis AlaDH (SEQ ID No. 4) was amplified from the plasmid pUC18-AlaDH by polymerase chain reaction (PCR) using the oligodeoxy nucleotides AlaDHfw (SEQ ID No. 11) and AlaDHrv (SEQ ID No. 12), cleaved at the 3′ end using the restriction enzyme KpnI and ligated with the expression vector pASK-IBA35(+) (IBA GmbH, Göttingen) which had been cleaved with the restriction enzymes EheI and KpnI. The resulting expression plasmid pASK-IBA35(+)-AlaDH on which the BasAlaDH with an N-terminal His6-tag is encoded was verified by means of analytical restriction digestion and DNA sequencing. The plasmid which codes for the enzyme variant D196A/L197R was generated by site-directed mutagenesis using the oligodeoxy nucleotides AlaDH_D196A/L197Rfw (SEQ ID No. 13) and AlaDH_D196A/L197Rrv (SEQ ID No. 14), using the QuikChange method. The resulting expression plasmid pASK-IBA35(+)-AlaDH(D196A/L197R) was verified by means of DNA sequencing.
# (§3) The expression plasmids for the BasAlaDH and its variant D196A/L197R were subsequently used for transforming E. coli BL21 (Sambrook et al. (2001) Molecular cloning: a laboratory manual, 3rd edition. Cold Spring Harbor Laboratory Press). Gene expression was induced in each case in LB medium (Sambrook et al. 2001) supplemented with 100 μg/ml ampicillin (2 L culture volume in a 5-l shake flask) at 30° C. in the exponential growth phase at OD550=0.5 by addition of 0.2 μg/ml anhydrotetracyclin (aTc; Acros, Geel, Belgium). After an induction time of 3 hours, the culture was harvested, and the cells were taken up in 40 mM Hepes/NaOH pH 7.5, 0.5 M NaCl and disrupted mechanically in a French press homogenizer (G. Heinemann, Schwäbisch Gmünd). The clear supernatant was applied to a Chelating Sepharose™ Fast Flow column loaded with Zn^2+ (bed volume 2.8 ml; GE Healthcare, Munich), and the enzymes with His6-tag fusion were eluted using a linear imidazole/HCl concentration gradient of from 0 to 500 mM in 40 mM Hepes/NaOH pH 7.5, 0.5 M NaCl. The elution fractions were concentrated by ultrafiltration and purified chromatographically by means of gel filtration on Superdex200 (GE Healthcare) in the presence of 25 mM Hepes/NaOH pH 8.3.
# (§4) The Michaelis constant (KM) and the turnover number (kcat) of the two purified enzymes for the cosubstrates NADH and NADPH were determined with the aid of reductive amination of pyruvate, and the catalytic efficiency (kcat/KM) was calculated (Table 1).
# [2] = substrate: NC(=O)C1=CN([C@@H]2O[C@H](COP(=O)(O)OP(=O)(O)OC[C@H]3O[C@@H](n4cnc5c(N)ncnc54)[C@H](OP(=O)(O)O)[C@@H]3O)[C@@H](O)[C@H]2O)C=CC1; test: as above; conditions: other: reductive amination of pyruvate, 5 mM pyruvate, 200 mM ammonium acetate, 10-500 μM NADPH, 0.5 μM enzyme, Hepes/NaOH pH 8.3, 30.0 °C
# Source text: as §1, §2, §3, §4
# [3] = substrate: NC(=O)C1=CN([C@@H]2O[C@H](COP(=O)(O)OP(=O)(O)OC[C@H]3O[C@@H](n4cnc5c(N)ncnc54)[C@H](O)[C@@H]3O)[C@@H](O)[C@H]2O)C=CC1; test: KM and kcat for NADH/NADPH, reductive amination of pyruvate, wild type BasAlaDH; conditions: other: reductive amination of pyruvate, 5 mM pyruvate, 200 mM ammonium acetate, 10-500 μM NADH, 0.5 μM enzyme, Hepes/NaOH pH 8.3, 30.0 °C
# Source text: as §2, §3, §4
# [4] = substrate: NC(=O)C1=CN([C@@H]2O[C@H](COP(=O)(O)OP(=O)(O)OC[C@H]3O[C@@H](n4cnc5c(N)ncnc54)[C@H](OP(=O)(O)O)[C@@H]3O)[C@@H](O)[C@H]2O)C=CC1; test: as above; conditions: other: reductive amination of pyruvate, 5 mM pyruvate, 200 mM ammonium acetate, 10-500 μM NADPH, 0.5 μM enzyme, Hepes/NaOH pH 8.3, 30.0 °C
# Source text: as §2, §3, §4
Protein,Km [1] [µM],kcat [1] [min⁻¹],kcat/Km [1] [μM^−1/min^−1],Km [2] [µM],kcat [2] [min⁻¹],kcat/Km [2] [μM^−1/min^−1],Km [3] [µM],kcat [3] [min⁻¹],kcat/Km [3] [μM^−1/min^−1],Km [4] [µM],kcat [4] [min⁻¹],kcat/Km [4] [μM^−1/min^−1]
"Bacillus subtilis alanine dehydrogenase (BasAlaDH) variant D196A/L197R (Asp196Ala, Leu197Arg), SEQ ID No. 1 (with His-Tag: SEQ ID No. 22) (Bacillus subtilis … (protein) MASRGSHHHHHHGAIIGVPKEIKNNENRVALTPGGVSQLISNGHRVLVETGAGLGSGFENEAYESAGAEIIADPKQVWDAEMVMKVKEPLPEEYVYFRKGLVLFTYLHLAAEPELAQALKDKGVTAIAYETVSEGRTLPLLTPMSEVAGRMAAQIGAQFLEKPKGGKGILLAGVPGVSRGKVTIIGGGVVGTNAAKMAVGLGADVTIIARNADRLRQLDDIFGHQIKTLISNPVNIADAVAEADLLICAVLIPGAKAPTLVTEEMVKQMKPGSVIVDVAIDQGGIVETVDHITTHDQPTYEKHGVVHYAVANMPGAVPRTSTIALTNVTVPYALQIANKGAVKALADNTALRAGLNTANGHVTYEAVARDLGYEYVPAEKALQDESSVAGA",887 ± 360,2669 ± 719,3.0,32 ± 3,1730 ± 39,54.1,–,–,–,–,–,–
"Bacillus subtilis alanine dehydrogenase (BasAlaDH), wild type (N-terminal His6-tag) (Bacillus subtilis subsp. subtilis str. 168) (protein) MIIGVPKEIKNNENRVALTPGGVSQLISNGHRVLVETGAGLGSGFENEAYESAGAEIIADPKQVWDAEMVMKVKEPLPEEYVYFRKGLVLFTYLHLAAEPELAQALKDKGVTAIAYETVSEGRTLPLLTPMSEVAGRMAAQIGAQFLEKPKGGKGILLAGVPGVSRGKVTIIGGGVVGTNAAKMAVGLGADVTIIDLNADRLRQLDDIFGHQIKTLISNPVNIADAVAEADLLICAVLIPGAKAPTLVTEEMVKQMKPGSVIVDVAIDQGGIVETVDHITTHDQPTYEKHGVVHYAVANMPGAVPRTSTIALTNVTVPYALQIANKGAVKALADNTALRAGLNTANGHVTYEAVARDLGYEYVPAEKALQDESSVAGA",–,–,–,–,–,–,14 ± 2,838 ± 21,59.9,448 ± 135,666 ± 114,1.5
